According to US20220324939A1 (Regeneron, published 2022):

T1: MAGE-A4 peptide on HLA-A*02:01 (human)
T1 peptide: KVLEHVVRV

T2: MAGE-A4 peptide on HLA-A*02:01 (human)
T2 peptide: GVYDGREHTV

T3: MAGE-A8 peptide on HLA-A*02:01 (human)
T3 peptide: GLYDGREHSV


What was measured:
[1] = target: T1, MAGE-A4 peptide on HLA-A*02:01; test: multimer staining
[2] = target: T4, soluble HLA-A2 (…) tetramer (human); test: flow cytometry, HLA-A2 (…) tetramer staining of CHO cells transfected with the TCR
T4 construct: Bought tetramer reagent; also called MAGE-A4/HLA tetramer reagent; HLA-A02:01 MAGE-A4 tetramer
Procedure: Samples were then analyzed on an LSRFortessa X-20 (BD Biosciences, San Jose, Calif.).

[3] = target: T2, MAGE-A4 peptide on HLA-A*02:01; test: multimer staining
[4] = target: T5, soluble HLA-A2 MAGE-A4 (…) tetramer (human); test: flow cytometry, HLA-A2 MAGE-A4 (…) tetramer staining of CHO cells transfected with the TCR
T5 construct: Bought tetramer reagent; also called MAGE-A4/HLA tetramer reagent; HLA-A02:01 MAGE-A4 tetramer
Procedure: (§1) Samples were then analyzed on an LSRFortessa X-20 (BD Biosciences, San Jose, Calif.). […] However, a more stringent cutoff, such as 3%, could be used to separate out Ag+ TCRs that behave better in the binding assay. Ag+ TCRs were determined by Next Generation Sequencing.

[5] = target: T6, soluble HLA-A2 MAGE-A8 (…) tetramer (human); test: flow cytometry, HLA-A2 MAGE-A8 (…) tetramer staining of CHO cells transfected with the TCR
T6 construct: Bought tetramer reagent; also called MAGE-A8/HLA tetramer reagent; HLA-A02:01 MAGE-A8 tetramer
Procedure: as §1

[6] = target: T5, soluble HLA-A2 MAGE-A4 (…) tetramer; test: flow cytometry tetramer staining; % with MAGE-A4 tetramer divided by % with MAGE-A8 tetramer (reference)
Procedure: as §1

[7] = target: T3, MAGE-A8 peptide on HLA-A*02:01; test: multimer staining

Row | Binder | binding result [1] | % in Ag+ gate >250 MFI, >1% [2] | binding result [3] | % tetramer in Ag+ gate (MAGE-A4) [4] | % tetramer in Ag+ gate (MAGE-A8) [5] | MAGE-A4/MAGE-A8 (ratio of % tetramer in Ag+ gate) [6] | binding result [7]
1 | PN41516 (TCR, V domains shown, stained with anti-mouse TCR constant region H57-597; full-length chains on transfected CHO cells; also called TCR No. 4) V domain 1: TQLLEQSPQFLSIQEGENLTVYCNSSSVFSSLQWYRQEPGEGPVLLVTVVTGGEVKKLKRLTFQFGDARKDSSLHITAAQPGDTGLYLCAGERDSWGKFQFGAGTQVVVTP V domain 2: NAGVTQTPKFRILKIGQSMTLQCAQDMNHNYMYWYRQDPGMGLKLIYYSVGAGITDKGEVPNGYNVSRSTTEYFPLRLELAAPSQTSVYFCASSFWTGGDEKLFFGSGTQLSVL | recognises | 7.83% | – | – | – | – | –
2 | PN41613 (TCR, V domains shown, stained with anti-mouse TCR constant region H57-597; full-length chains on transfected CHO cells; also called TCR No. 19) V domain 1: AQTVTQSQPEMSVQEAETVTLSCTYDTSESDYYLFWYKQPPSRQMILVIRQEAYKQQNATENRFSVNFQKAAKSFSLKISDSQLGDAAMYFCAYRSATGNQFYFGTGTSLTVIP V domain 2: EAQVTQNPRYLITVTGKKLTVTCSQNMNHEYMSWYRQDPGLGLRQIYYSMNVEVTDKGDVPEGYKVSRKEKRNFPLILESPSPNQTSLYFCASSLLYSNQPQHFGDGTRLSIL | recognises | 58.7% | – | – | – | – | –
3 | PN41839 (TCR, V domains shown, stained with anti-mouse TCR constant region H57-597; full-length chains on transfected CHO cells; also called TCR No. 34) V domain 1: DAKTTQPPSMDCAEGRAANLPCNHSTISGNEYVYWYRQIHSQGPQYIIHGLKNNETNEMASLIITEDRKSSTLILPHATLRDTAVYYCIVYGGSQGNLIFGKGTKLSVKP V domain 2: DAGVTQSPTHLIKTRGQQVTLRCSPKSGHDTVSWYQQALGQGPQFIFQYYEEEERQRGNFPDRFSGHQFPNYSSELNVNALLLGDSALYLCASSFSRVQPQHFGDGTRLSIL | recognises | 85.4% | – | – | – | – | –
4 | PN41550 (TCR, V domains shown, stained with anti-mouse TCR constant region H57-597; full-length chains on transfected CHO cells; also called TCR No. 10) V domain 1: QKEVEQNSGPLSVPEGAIASLNCTYSDRGSQSFFWYRQYSGKSPELIMSIYSNGDKEDGRFTAQLNKASQYVSLLIRDSQPSDSATYLCAVNLSWGKFQFGAGTQVVVTP V domain 2: DAGVTQSPTHLIKTRGQQVTLRCSPKSGHDTVSWYQQALGQGPQFIFQYYEEEERQRGNFPDRFSGHQFPNYSSELNVNALLLGDSALYLCASSLDRSTEAFFGQGTRLTVV | recognises | 92.2% | – | – | – | – | –
5 | PN45584 (TCR, V domains shown, stained with anti-mouse TCR constant region H57-597; full-length chains on transfected CHO cells; also called TCR No. 43) V domain 1: AQKITQTQPGMFVQEKEAVTLDCTYDTSDPSYGLFWYKQPSSGEMIFLIYQGSYDEQNATEGRYSLNFQKARKSANLVISASQLGDSAMYFCAMREGPGSGNTGKLIFGQGTTLQVKP V domain 2: NAGVTQTPKFRILKIGQSMTLQCAQDMNHNYMYWYRQDPGMGLKLIYYSVGAGITDKGEVPNGYNVSRSTTEYFPLRLELAAPSQTSVYFCASSYSEWQNYGYTFGSGTRLTVV | – | – | recognises | 69.1% | – | – | –
6 | PN41557 (TCR, V domains shown, stained with anti-mouse TCR constant region H57-597; full-length chains on transfected CHO cells; also called TCR No. 11) V domain 1: EDQVTQSPEALRLQEGESSSLNCSYTVSGLRGLFWYRQDPGKGPEFLFTLYSAGEEKEKERLKATLTKKESFLHITAPKPEDSATYLCAVQAVTGGGNKLTFGTGTQLKVEL V domain 2: GAVVSQHPSWVICKSGTSVKIECRSLDFQATTMFWYRQFPKQSLMLMATSNEGSKATYEQGVEKDKFLINHASLTLSTLTVTSAHPEDSSFYICSASWDRDYGYTFGSGTRLTVV | recognises | 8.76% | – | – | – | – | –
7 | PN41539 (TCR, V domains shown, stained with anti-mouse TCR constant region H57-597; full-length chains on transfected CHO cells; also called TCR No. 9) V domain 1: AQKVTQAQTEISVVEKEDVTLDCVYETRDTTYYLFWYKQPPSGELVFLIRRNSFDEQNEISGRYSWNFQKSTSSFNFTITASQVVDSAVYFCALSEGDTGGFKTIFGAGTRLFVKA V domain 2: NAGVTQTPKFRILKIGQSMTLQCAQDMNHNYMYWYRQDPGMGLKLIYYSVGAGITDKGEVPNGYNVSRSTTEYFPLRLELAAPSQTSVYFCASSYFPDRGLGNTIYFGEGSWLTVV | recognises | 10.9% | – | – | – | – | –
8 | PN45515 (TCR, V domains shown, stained with anti-mouse TCR constant region H57-597; full-length chains on transfected CHO cells; also called TCR No. 39) V domain 1: DAKTTQPPSMDCAEGRAANLPCNHSTISGNEYVYWYRQIHSQGPQYIIHGLKNNETNEMASLIITEDRKSSTLILPHATLRDTAVYYCIVRPYNAGNNRKLIWGLGTSLAVNP V domain 2: DVKVTQSSRYLVKRTGEKVFLECVQDMDHENMFWYRQDPGLGLRLIYFSYDVKMKEKGDIPEGYSVSREKKERFSLILESASTNQTSMYLCASSFGGGYYGYTFGSGTRLTVV | – | – | recognises | 11.5% | – | 1150 | no recognition
9 | PN45494 (TCR, V domains shown, full-length chains on transfected CHO cells; also called TCR No. 50) V domain 1: GNSVTQIEGPVTLSEEAFLTINCTYTATGYPSLFWYVQYPGEGLQLLLKATKADDKGSNKGFEATYRKETTSFHLEKGSVQVSDSAVYFCALSDTRDDKTIFGKGTRLHILP V domain 2: DVKVTQSSRYLVKRTGEKVFLECVQDMDHENMFWYRQDPGLGLRLIYFSYDVKMKEKGDIPEGYSVSREKKERFSLILESASTNQTSMYLCASSLQGRYYGYTFGSGTRLTVV | – | – | recognises | 3.7% | 1.88% | 1.97 | recognises

Second part, the binder after the results:

Row | binding result [1] | % in Ag+ gate >250 MFI, >1% [2] | binding result [3] | % tetramer in Ag+ gate (MAGE-A4) [4] | % tetramer in Ag+ gate (MAGE-A8) [5] | MAGE-A4/MAGE-A8 (ratio of % tetramer in Ag+ gate) [6] | binding result [7] | Binder
10 | – | – | recognises | 12.3% | 1.24% | 9.92 | – | PN45418 (TCR, V domains shown, stained with anti-mouse TCR constant region H57-597; full-length chains on transfected CHO cells; also called TCR No. 46) V domain 1: EDQVTQSPEALRLQEGESSSLNCSYTVSGLRGLFWYRQDPGKGPEFLFTLYSAGEEKEKERLKATLTKKESFLHITAPKPEDSATYLCAVQPSYSGAGSYQLTFGKGTKLSVIP V domain 2: EAQVTQNPRYLITVTGKKLTVTCSQNMNHEYMSWYRQDPGLGLRQIYYSMNVEVTDKGDVPEGYKVSRKEKRNFPLILESPSPNQTSLYFCASSPGTGGFSPLHFGNGTRLTVT
11 | – | – | recognises | 34.7% | 16.7% | 2.08 | recognises | PN45460 (TCR, V domains shown, full-length chains on transfected CHO cells; also called TCR No. 49) V domain 1: GNSVTQMEGPVTLSEEAFLTINCTYTATGYPSLFWYVQYPGEGLQLLLKATKADDKGSNKGFEATYRKETTSFHLEKGSVQVSDSAVYFCALSDTRDDKIIFGKGTRLHILP V domain 2: EAQVTQSPRYLITVTGKKLTVTCSQNMNHEYMSWYRQDPGLGLRQIYYSMNVEVTDKGDVPEGYKVSRKEKRNFPLILESPSPNQTSLYFCASSPGTGGFSPLHFGNGTRLTVT
12 | – | – | recognises | 56.5% | – | 991 | – | PN45593 (TCR, V domains shown, stained with anti-mouse TCR constant region H57-597; full-length chains on transfected CHO cells; also called TCR No. 40) V domain 1: AQKITQTQPGMFVQEKEAVTLDCTYDTSDPSYGLFWYKQPSSGEMIFLIYQGSYDQQNATEGRYSLNFQKARKSANLVISASQLGDSAMYFCAMREGPGNNARLMFGDGTQLVVKP V domain 2: NAGVTQTPKFRVLKTGQSMTLLCAQDMNHEYMYWYRQDPGMGLRLIHYSVGEGTTAKGEVPDGYNVSRLKKQNFLLGLESAAPSQTSVYFCASSYWDRGSPLHFGNGTRLTVT
13 | – | – | recognises | 3.18% | – | 18.7 | – | PN45581 (TCR, V domains shown, stained with anti-mouse TCR constant region H57-597; full-length chains on transfected CHO cells; also called TCR No. 44) V domain 1: AQKITQTQPGMFVQEKEAVTLDCTYDTSDPSYGLFWYKQPSSGEMIFLIYQGSYDQQNATEGRYSLNFQKARKSANLVISASQLGDSAMYFCAMREGPGNNARLMFGDGTQLVVKP V domain 2: EAQVTQTPRYLITVTGKKLTVTCSQNMNHEYMSWYRQDPGLGLRQIYYSMNVEVTDKGDVPEGYKVSRKEKRNFPLILESPSPNQTSLYFCASSLWTGGGYTFGSGTRLTVV
14 | – | – | recognises | 94.7% | 66.3% | 1.43 | recognises | PN45557 (TCR, V domains shown, full-length chains on transfected CHO cells; also called TCR No. 52) V domain 1: AQKITQTQPGMFVQEKEAVTLDCTYDTSDPSYGLFWYKQPSSGEMIFLIYQGSYDQQNATEGRYSLNFQKARKSANLVISASQLGDSAMYFCAMREGPGSGNTGKLIFGQGTTLQVKP V domain 2: NAGVTQTPKFRILKIGQSMTLQCAQDMNHNYMYWYRQDPGMGLKLIYYSVGAGITDKGEVPNGYNVSRSTTEYFPLRLELAAPSQTSVYFCASSYSEWQNYGYTFGSGTRLTVV
15 | – | – | recognises | 16% | 6.39% | 2.5 | recognises | PN45489 (TCR, V domains shown, stained with anti-mouse TCR constant region H57-597; full-length chains on transfected CHO cells; also called TCR No. 48) V domain 1: TQLLEQSPQFLSIQEGENLTVYCNSSSVFSSLQWYRQEPGEGPVLLVTVVTGGEVKKLKRLTFQFGDARKDSSLHITAAQPGDTGLYLCAEDGGSQGNLIFGKGTKLSVKP V domain 2: DVKVTQTSRYLVKRTGEKVFLECVQDMDHENMFWYRQDPGLGLRLIYFSYDVKMKEKGDIPEGYSVSREKKERFSLILESASTNQTSMYLCASSLQGRYYGYTFGSGTRLTVV
16 | – | – | recognises | 59.8% | – | 498 | – | PN45539 (TCR, V domains shown, stained with anti-mouse TCR constant region H57-597; full-length chains on transfected CHO cells; also called TCR No. 41) V domain 1: DAKTTQPPSMDCAEGRAANLPCNHSTISGNEYVYWYRQIHSQGPQYIIHGLKNNETNEMASLIITEDRKSSTLILPHATLRDTAVYYCIVRPYNAGNNRKLIWGLGTSLAVNP V domain 2: DVKVTQSSRYLVKRTGEKVFLECVQDMDHENMFWYRQDPGLGLRLIYFSYDVKMKEKGDIPEGYSVSREKKERFSLILESASTNQTSMYLCASSFEGGYYGYTFGSGTRLTVV
17 | – | – | recognises | 87.9% | 72.9% | 1.21 | recognises | PN45481 (TCR, V domains shown, full-length chains on transfected CHO cells; also called TCR No. 54) V domain 1: GNSVTQMEGPVTLSEEAFLTINCTYTATGYPSLFWYVQYPGEGLQLLLKATKADDKGSNKGFEATYRKETTSFHLEKGSVQVSDSAVYFCALSDTRDDKIIFGKGTRLHILP V domain 2: DVKVTQSSRYLVKRTGEKVFLECVQDMDHENMFWYRQDPGLGLRLIYFSYDVKMKEKGDIPEGYSVSREKKERFSLILESASTNQTSMYLCASSLQGRYYGYTFGSGTRLTVV
